Experimental data reported in the DeepSol protein solubility set.

Test: soluble on expression in E. coli; label from the status in PepcDB or PDB records
For “MSAPLIDKYRKMATFDWKKLKAAVEGEEHVRLKSEVVAKMKSEPVFHRDYRVLSREEQREVVHQRWKKIVEWGLFKDPYSDLENFHALTETLEAYDQGTSARLFLHGNVFGAAVKSMGTDRHKDLIQKTENNEIVGAFCLTEVGHGSNTAEIQTTATFDNGELVFNTPSVSAIKCWAGNLAHSATHVVVYAQLHVEGKNEGFHGFVIQVRCPRTFQTLPGITIGDMGSKPGCWQGVENGWMEFKNHRAPLSALLNKGCDITPDGKYVTSFKSASEKQSVSLGTLSVGRLGIIAKGMMACTFASTIAIRYSVARRQFGPVKGAENEIPVLEYPLQQYRLFPYLSAAICIRIFQKKFVGHFTEYMMRVIMGEKSDELSEFSKEVHALSSGAKPVATWLGVESLGEARKACGGHGYLQMSRLNTLRDDNDPSQTFEGENFMILQQTSNILLGKAQSIGSIETPMSTMSFLNQKPSKFSSWSSNPVNDVLSAYRYLTYHLLQTTSAEAYRLKASGKNSFEVRNEIQIHRAVNLSVAYTEHTMIHWVQQFLKEIEDQSVKPVLQKVLNLFSLFLLERHLATLYITGYASGGKFGEDLREKLRLAVAELKPEAIALVDSIAPDDFILHSALGASDGKAYEHIMEEFRKYTNEQPRWVCDLAQFLQKRSQGSKL”, the “soluble on expression in E. coli” value was “not soluble”. For “KSITITTPYFVPSEILLHTLRTTAHRGVEVKLILPKKNDSLMVNWASKSFFETLLKAGVQIHEFNGGLLHTKSVVIDESHCIIGTVNLDMRSFWLNFEVSLIVDDPEFTKQLSWVLDGYLEQSTQVCFDTWRHRSWGNRFTERFFSMFSPLL”, the “soluble on expression in E. coli” value was “not soluble”. With “MISGLSHITLIVKDLNKTTAFLQNIFNAEEIYSSGDKTFSLSKEKFFLIAGLWICIMEGDSLQERTYNHIAFQIQSEEVDEYTERIKALGVEMKPERPRVQGEGRSIYFYDFDNHLFELHAGTLEQRLKRYHE” the “soluble on expression in E. coli” value was “soluble”. With “MGSDKIHHHHHHGCDDNTGGLGLGMFPGNDQNIKGKLSTFDVTTESVKTGDIYAKTNIGYIGKFTDETFGTYQAGFLAQLNCPDGLTFPEPYKEVTDASGNVISATGRMVVDDKDPENKDVTFIKDGNQIIGNIRAVELYLWYDSYFGDSLTACRLSVYELGGNGKETLNLDNAYYTDINPEDFYDSQNILGTKAYTAVDLSVKDSIRNLSTYVPSVHIAFKEDIATRVGGNILTAARKAKNADKEFNSQLFREAFQGIYVKSDYGDGTVLYIDQPQMNVVYKCYATDSITGKKLQKKDGSGKDSTYYSYRVFATTREVIQANQLKNDPERIDALIKEDKNTYLKSPAGIFTEATLPISDIQNELTGDTLNAVKLTFTNYNQTGDKKFGMAIPSTVMLVRKKFQDSFFKDNKLSDGVSSYLTSHTSSTNQYVFSNITKLVNACIAEKEEAKKNAGSSWDETKWLQENPDWNKVVLIPVLVTYDSSNTTTGQANIIRIQHDLKPGYVRLKGGSLGKTNPDYKLKLEVISTDFGLTTKSN” the “soluble on expression in E. coli” value was “not soluble”. In the case of “MSLEQKWKWWEEERYPEGIKWKFLEHKGPVFAPPYEPLPENVKFYYDGKVMKLSPKAEEVATFFAKMLDHEYTTKEIFRKNFFKDWRKEMTNEEKNIITNLSKCDFTQMSQYFKAQTEARKQMSKEEKLKIKEENEKLLKEYGEGHHHHHH”, the “soluble on expression in E. coli” value is reported as “soluble”. For “MERGQSLALQSNRNRPYMIRIIQPILRSERRRKLGREYFILHRKLSDCFSSIKWALPAKGDNSHGCSYPVMEHRSLIMRRLKDVDMYMQENKRTNLRLAISKLHGMIIRPGETFSVWRHVGRPTARKGYLEGLVLSQGKIGKGVGGGLCQLGNLLFWMFAHTPLSIVERHRHSFDVFPDINRSIPFGAGATLSYNYIDLRVSNNTPHTYRLELWLDDTHLNGRISSDTEQRDRYRIEETDHRIEHQSWGGYTRHNKLVRIVTRADGSEYTEPFVENHAIMMYNPLLSPPQNGASTSFQR”, the “soluble on expression in E. coli” value was “not soluble”. For “MFVEALKRQNPALISAALSLWQQGKIAPDSWVIDVDQILENGKRLIETARLYGIELYLMTKQFGRNPWLAEKLLALGYSGIVAVDYKEARVMRRAGLPVAHQGHLVQIPCHQVADAVEQGTDIITVFTLDKAREVSAAAVKAGRVQPVLLKVYSDDDFLYPGQESGFVQHSLHEVIAEIKKLPGLHLAGLTHFPCLLWDEAAGKVLPTPNLHTLVQARDQLAKSGIAIEQLNVPSATSCTSLPLLAEYGATHAEPGHALTGTIPANQQGDQPERIAMLWLSEISHHFRGDSYCYGGGYYRRGHAQHALVFTPENQKITETNLKTVDDSSIDYTLPLAGEYPVSSAVVLCFRTQIFVTRSDVVLVSGIQRGEPEIVGRYDSLGNPLEA”, the “soluble on expression in E. coli” value was “not soluble”. With “MGSDKIHHHHHHMVSSSAKLHDPEEGSAANFPDIDNLKIAFGQLPSGVVIVTSQGCGGEMVGATVSSFASLSFTPPLVMLGLAQSSTTLSAILDHGHFAVHVVAEPQQDIAMRFASSRADKFSDIDFKLSPSGVPILSEFDTCFHCALERAQSAGDHQLLIGRIVDVSTVERDTTPVAWFNRRFHICEPRALV” the “soluble on expression in E. coli” value was “not soluble”. With “MAHHHHHHMAVNARHDLLYECLGLVYELYGGLAEDLQELHDDPLHPHFHRRIARIKRDRERIATELDKRYAKLHPTVKTVYDAFLVRRYYHLADWIEHVERKRERLINDLSPDVMEKTMRMRGIAEQYLRHLRALEHALYEDPLMGLLGGDRGTNVLDQYTPGELAMLRQKAAYFRNMRRFGANQLDADMHTH” the “soluble on expression in E. coli” value was “not soluble”. For “MLTKGWDTISIVRQDSVNSDLAASWNSLDHEFSYTSDEGYACHGVFDCWSVINGGGGRLLRLRMPIRSGFFEASGTSRSLAGAVAIIEVTLSLLPQGNGQVQLKSAFLHKAGATQPLQGDEGGWLRGITLQDPDGSLGPFASVVLDCICNYLVEHPLQFTHTFATINFSKATAPEWARPRKCTYAYLDSGFLAIMAVCTERDISGLPLDIDVSGISQGGQSSYVLSPRMVLEHLVLPGLLQLYQGATAQDYRLDNTQMVNIPTLRMKAIKSGAIWYTPVVFAGCNPARMLGDFITVDYKGDCDLHAGIDMKWNGWLRMKLVLDGNTINFVKQSSDFRKEVHIPWYLAWLSPIVSLITHIVAAVISDDLISAIAARGGSVKADTIDCVSWSNDTHTASSSYLAEALVINYV”, the “soluble on expression in E. coli” value was “soluble”. For “KAFIDIFDSFDPEPIACGSIAQVYKGVLEGKPVAVKILRPHLIDIINIDLSILDDFKPVMKKVMGVGKNFDIDAFLLEIREMLTREVDLRIEAVNMRRFEDNFKNVKNVSVPKIYPDYC”, the “soluble on expression in E. coli” value was “not soluble”. With “SYELTQPPSVSVAPGQTARISCSGDNIGGTFVSWYQQKPGQAPVLVIYDDNDRPSGIPERFSGSNSGNTATLTISGTQAEDEADYYCGTWDMVTNNVFGGGTKLTVLGQPKAAPSVTLFPPSSEELQANKATLVCLISDFYPGAVTVAWKADSSPVKAGVETTTPSKQSNNKYAASSYLSLTPEQWKSHRSYSCQVTHEGSTVEKTVAPTECS” the “soluble on expression in E. coli” value was “soluble”. In the case of “MPKETPSKAAADALSDLEIKDSKSNLNKELETLREENRVKSDMLKEKLSKDAENHKAYLKSHQVHRHKLKEMEKEEPLLNEDKERTVLFPIKYHEIWQAYKRAEASFWTAEEIDLSKDIHDWNNRMNENERFFISRVLAFFAASDGIVNENLVENFSTEVQIPEAKSFYGFQIMIENIHSETYSLLIDTYIKDPKESEFLFNAIHTIPEIGEKAEWALRWIQDADALFGERLVAFASIEGVFFSGSFASIFWLKKRGMMPGLTFSNELICRDEGLHTDFACLLFAHLKNKPDPAIVEKIVTEAVEIEQRYFLDALPVALLGMNADLMNQYVEFVADRLLVAFGNKKYYKVENPFDFMENISLAGKTNFFEKRVSDYQKAGVMSKSTKQEAGAFTFNEDF”, the “soluble on expression in E. coli” value is reported as “soluble”. With “MAKPVVIGSRSFRTQSSALDHYKALLHRYQDGQRIADPADHTDLVALIERFDPVLDAVGEPAKGAGQIAHFERRLNTGIGWSTPGFWVVRQDGTETDFSYIDAVKGRPKGRSQDFYNACRQAVALDLVLAKKQAFAQYGDDQGRVECELTGKMVTIDDAHLDHAWPYFSHMVSGFRAARGWSRDIPDGIVSTPADGQTTATFLDSAVTEAFRAFHHDQAVLRVLSREANLQTASSARRPKVARPVRLALEHHHHHH” the “soluble on expression in E. coli” value was “soluble”. In the case of “MKFRRSGRLVDLTNYLLTHPHELIPLTFFSERYESAKSSISEDLTIIKQTFEQQGIGTLLTVPGAAGGVKYIPKMKQAEAEEFVQTLGQSLANPERILPGGYVYLTDILGKPSVLSKVGKLFASVFAEREIDVVMTVATKGIPLAYAAASYLNVPVVIVRKDNKVTEGSTVSINYVSGSSNRIQTMSLAKRSMKTGSNVLIIDDFMKAGGTINGMINLLDEFNANVAGIGVLVEAEGVDERLVDEYMSLLTLSTINMKEKSIEIQNGNFLRFFKDNLLKNGETESHHHHHH”, the “soluble on expression in E. coli” value is reported as “soluble”. In the case of “MAILAFDLGGSSVKYGVWTGKELTNQGSFPTPGSWEEMKAHLYSVYADKRNESISGVAFSSPGVVDEKSQQILGISAIPYIHHFNIYEELEALFGLPVTIENDANCAGLAEIYEGAAKGKKEVLFVVIGTGIGGAIFRNGELYKGAHLYGGEFGLNFLSNGQTFSEIGTAVKMAQRYCERIGVEKQAVTGEEVFELAQRGDEIAREEVNNFYDYLTQGLFGLQFSYDPEMIVLGGGVSAKEGLLAEINRRMLTHLQTFELKDFVPEIVTCHYQNDANLIGAAANFQAKTNWEL”, the “soluble on expression in E. coli” value is reported as “not soluble”. In the case of “MSLYIQNLELTSYRNYDHAELQFENKVNVIIGENAQGKTNLMEAIYVLSMAKSHRTSNDKELIRWDKDYAKIEGRVMKQNGAIPMQLVISKKGKKGKVNHIEQQKLSQYVGALNTIMFAPEDLNLVKGSPQVRRRFLDMEIGQVSPVYLHDLSLYQKILSQRNHFLKQLQTRKQTDRTMLDVLTDQLVEVAAKVVVKRLQFTAQLEKWAQPIHAGISRGLEELTLKYHTALDVSDPLDLSKIGDSYQEAFSKLREKEIERGVTLSGPHRDDVLFYVNGRDVQTYGSQGQQRTTALSLKLAEIDLIHEEIGEYPILLLDDVLSELDDYRQSHLLHTIQGRVQTFVTTTSVDGIDHETLRQAGMFRVQNGALVKEGGSHHHHHH”, the “soluble on expression in E. coli” value is reported as “soluble”. For “MEHEQHSSINDILHHYKEGIGSFTNQIPEIAETYNAFTQACFQEGALTKREKQLIALGISLATQDEYCTIYHTKGCLDQGCSDKEILEACGVSAAFAGGAAMSQAVTLVQECLTELKNQKH”, the “soluble on expression in E. coli” value was “not soluble”. For “MGHHHHHHSHMWKDFIDHISSLLHSVEVEVSYFAAGIIAHLISRGEQAWTLSRSQRNSLLDDLHSAILKWPTPECEMVAYRSFNPFFPLLGCFTTPGVQLWAVCAMQHVCSKNPSRYCSMLIEEGGLQHLYNIKDHEHTDPHVQQIAVAILDSLEKHIVRHGRPPPCKKQPQARLN”, the “soluble on expression in E. coli” value was “not soluble”. In the case of “MSLDLASKYFNDIDWRYVDHSSGLAPMQSFAFDDTFSESVGKDLSCNVVRTWIHQHTVILGIHDSRLPFLKDGIKYLTDEIGYNAIVRNSGGLGVVLDQGVLNISLIFKGQTETTIDEAFTVMYLLICKMFENEDVEIDTREIEHSYCPGKFDLSIDGKKFAGISQRRVRGGIAVQIYLCVEGSGSERAEMMRVFYEHALKGEVTKFKYPDIHPECMASLETLFEREIKVQDVMFQLLHAIKDLGGNLNMDPITEDEWTRYEGYFDKMIDRNEKMNRSIEADEGHHHHHH”, the “soluble on expression in E. coli” value is reported as “soluble”. With “MGSDKIHHHHHHADVRMPLIFGDHMVLQQDTKIAIFGWADAGETVEVVFAGQKVKTTADTDGTWRVNLKPIKTKKEGQTLTIAGKNKLVYSDVLVGDVWVASGQSNMEWGIKVRKEYADDISASEDPLLRLFFVPKNTSLEPLTDIEVPQGTSNPERAARWVLCTPEMLAKINGQGFSATAYYFARDMRAANGRPLGVIQSAWGGTRAEAWTSLSGLKQEPALAHYVAAYEKNVKDNPEILATYPQKQKEFDEAVREWDKTVGKEWNQAQKEWAIAVQAAQAAGKPAPPKPQPSVPRPPNPRKPNGGNNGPSNLFNAMISPLIPLSIKGVIWYQGEFNSGGSGKEYATLFSRMITDWREKWGIGDFPFVYVQLPNFEPVDPEPSVEGNGWRWVREGQLKALNLPNTAMAVTIDVGDPFDLHPVDKYDVGHRLALAARKLAYGEKIVGMGPLYKKMSVKGNKIILEFTNQGKKLVMGTSPYIPAGKPPHPKPTKLTGFGIAGADRKFVWADAVIEGNKVIVSSSEVAVPLAVRYGFSNSPRCNLYNEKGLPASPFRTDSWDK” the “soluble on expression in E. coli” value was “not soluble”.
